Measured values taken from patent publication US9889179B2, “FGF-18 compound dosing regimen” (MERCK PATENT GMBH, priority 2014, dated 2018).
Entries after “also recorded” stand apart in the source; their conditions may differ. Read-outs that look alike come from different tables or passages of the source.

How the values were obtained:
[1] = tested on: medial meniscal tear in the right knee joint; format: in vivo, Male Lewis rats; conditions: for swelling scores versus vehicle controls: days 24-29, 31, 36-43
Method: Male Lewis rats underwent surgery to induce a medial meniscal tear in the right knee joint. Animals were dosed i.a. with FGF-18 (10 μg/joint) on days 21, 28, and 35 and dosed orally with diclofenac (either 1 mg/kg or 3 mg/kg) or vehicle on days 21-23, 28-30, and 35-37, then terminated on day 42 or day 63. Serum was collected and evaluated for alpha 2 macroglobulin (α2MG) levels on days −3, 21, 42, and 63. α2MG is an inflammation serum biomarker. The link between α2MG and inflammation has already been shown (Kuribayashi et al., 2013).

OA symptoms = conditions: cited from earlier work
RA = conditions: human, in vivo; cited from earlier work
[2] = tested on: ACLT+tMx model of instability-induced OA; experiment: ACLT+tMx model of instability-induced OA, cartilage matrix deposition by Safranin-O (Example 1); format: in vivo, male Lewis rats
Method: The anterior cruciate ligament transection with resection of the medial meniscus (ACLT+tMx) model of instability-induced OA was performed in male Lewis rats 10-15 weeks of age. Briefly, under anesthesia with Isoflurane, the joint capsule of the right knee of each rat was opened, the anterior cruciate and the meniscus fixating ligaments were sharply transected, the meniscus was removed and the capsule, muscles and skin closed by sutures. Animals were randomly allocated into 10 groups of n=10 each. The following dosages were investigated: 0, 0.3, 1, 3 and 10 μg per intra-articular injection. Groups 1-5 received one cycle of three single injections at weekly intervals, group 6-10 three single injections at monthly intervals. Intra-articular treatment was started three weeks post-surgery. At this time pathophysiological changes are already mainifest, e.g., cartilage matrix loss. Animals were euthanized 17 weeks after surgery and joints were investigated.

[3] = tested on: medial meniscal tear in the right knee joint; format: in vivo, Male Lewis rats
Method: After the sacrifice, the right knee was removed and decalcified in 5% formic acid for 4-6 d before cutting in half in the frontal plane and embedding in paraffin wax. Three sections were cut in 200 μm steps, stained with toluidine blue, and analyzed using ImagePro Plus™ software (Media Cybernetics). In scoring the three sections of the joint, the worst-case scenario for the two halves on each slide was determined for the cartilage lesion as the cartilage degeneration width (μm). This reflects the areas of tibial cartilage lesion in which both chondrocyte and proteoglycan loss extend 50% of the cartilage thickness. The measurement was taken over the area of greatest lesion severity in each of the three zones across the tibial surface.
A treatment group Mean±SE for each score and measurement was determined.
Data was analyzed using a one-way analysis of variance (1-way ANOVA) or Kruskal-Wallis test (non-parametric), along with an appropriate multiple comparison post-test. Right knee caliper measurements were compared to left using a Student's t-test. Unless indicated, Bolder BioPATH, Inc. performs statistical analysis on raw (untransformed) data only. […] Significance for all tests was set at p≦0.05. Comparisons were made between each group and the vehicle control group, as well as between pairs
Male Lewis rats underwent surgery (under anesthesia with Isoflurane) to induce a medial meniscal tear in the right knee joint. Animals were dosed IA with vehicle or FGF-18 on one of two different regimens (see table below), then terminated on day 105. Knees had caliper measurements taken at baseline and days 21, 42, 56, 84, and 105. Serum was evaluated for α2 macroglobulin levels at baseline and on days 21, and 105, as well as one week after the final dose (day 42 or 84). Right knees were collected for histopathology evaluation.

[4] = tested on: full-thickness defect in the articular cartilage of the trochlear groove; format: in vivo, New Zealand White rabbits
Source text: 60 adult male, naïve, New Zealand White rabbits were used for this study. Animals were approximately 3-4 months of age. Rabbits underwent surgery for creation of the cartilage defect right knee. A 2 mm by 6 mm full-thickness defect was made in the articular cartilage of the trochlear groove. The microfracture was created using 18 gauge needles. Two 3 mm deep microfractures were made through the subchondral bone at the base of the defect, one proximally and one distally. Each microfracture hole was approximately 1.5 mm in diameter and the holes separated by 2 mm. The experiment consisted of the following six treatment groups, with 10 animals in each group for a total of 60 rabbits (Table 2). Rabbits in Groups 3, 4, 5 and 6 were treated with intra-articular rhFGF-18 in either one cycle of three weekly injections of 100 μg of rhFGF-18 (Group 3 and 5) or one cycle of three monthly injections of 100 μg of rhFGF-18 (Group 4 and 6). All animals were euthanized and necropsied 6 months after surgery. [table]

[5] = tested on: Primary articular porcine chondrocytes; experiment: Porcine chondrocyte proliferation with or without IL1α challenge (Example 4); format: cell-based, pig; conditions: 100 ng/mL; for increase in the cell number versus control (medium, no IL1α): 8 days of culture; for stimulation of proliferation versus control (medium, IL1α 10 ng/mL): 8 days
Method: Porcine chondrocytes were isolated from the cartilage of a femoral head of a pig hip (pigs were approximately one year old). After dissection of the joints, the cartilage was harvested and digested for 45 minutes with collagenase 0.25% ( 1/10 dilution of collagenase NBG4 2.5% in HAM's F12) at room temperature. The loosened cells were discarded and the cartilage further digested overnight with collagenase 0.1% ( 1/25 dilution of collagenase NBG4 2.5% in HAM's F12) at 37° C. to extract the chondrocytes. For this study, the chondrocytes were cultured in a monolayer.
Primary articular porcine chondrocytes were stimulated or not with 10 ng/mL IL1α and were either treated immediately or 6 hours later with anakinra 100 ng/mL and/or trFGF-18 100 ng/mL. Each condition was performed in 4 or 6-plicate. As a control, cells were also cultured with anakinra alone, trFGF-18 alone or in the absence of any treatment (medium).
Pre-culture: After cell isolation porcine chondrocytes were inoculated at 20,000 cells/cm^2 and cultivated for one week in complete HAM's F12. Cells were then harvested with accutase, counted and used as described below.
For cells treated directly with anakinra: Chondrocytes were inoculated in a 24-well plate at 15,000 cells/well in 0.5 mL of complete HAM's F12. Then 0.25 mL of trFGF-18 400 ng/mL and/or 0.25 mL of anakinra 400 ng/mL were added to the cells. In the challenged samples, 10 μL of IL1α at 1,000 ng/mL were also added to the cells. trFGF-18, anakinra and IL1α were all diluted in complete HAM's F12. The final volume in the culture well was adjusted to 1 mL with complete HAM's F12. Final concentrations were 10 ng/mL IL1α, 100 ng/mL trFGF-18 and 100 ng/mL anakinra and the total culture time was eight days. A complete medium change was performed after four days. N=4.
For cells treated with anakinra and trFGF-18 6 hours after the IL1α challenge: Chondrocytes were inoculated in a 24-well plate at 15,000 cells/well in 1 mL of complete HAM's F12 containing or not containing IL1α 10 ng/mL. After 6 hours the medium was removed and replaced with 0.25 mL trFGF-18 400 ng/mL and/or 0.25 mL of anakinra 400 ng/mL. In the challenged samples, 0.25 mL of IL1α at 40 ng/mL was also added to the cells. trFGF-18, anakinra and IL1α were all diluted in complete HAM's F12. The final volume in the culture well was adjusted to 1 mL with complete HAM's F12. Final concentrations were 10 ng/mL IL1α, 100 ng/mL trFGF-18 and 100 ng/mL anakinra and the total culture time was eight days. A complete medium change was performed after four days. N=6.
After eight days of culture, cells were harvested with accutase and resulting cell suspensions were analyzed for cell concentration and cell viability with a ViCell™ cell analyzer (from Beckman Coulter). […]

[6] = tested on: rat model of OA (ACLT with tMx); experiment: ACLT+tMx rat model of OA, intracycle dosing frequency of sprifermin (Example 6); format: in vivo, male Lister Hooded Rats
Method: The goal of this study was to evaluate the effect of different intracycle dosing frequency of the same total dosage (3×1 μg) of sprifermin on cartilage volume in a rat model of OA. The anterior cruciate ligament transection (ACLT) with resection of the medial meniscus (tMx) was performed as disclosed in Example 1. Joints from male Lister Hooded Rats (200-260 g, Charles River) were used in this study. Animals were euthanized 18 weeks post-surgery.
The changes in the joint are related to clinical assessments in OA (cartilage loss, osteophytes, subchondral sclerosis). One μg sprifermin in saline was injected three times either weekly, every 2nd, every 3rd, every 4th or every 5th week and compared to appropriate vehicle groups. Body weight, joint diameters and clinical health scores were investigated weekly.

Molecule: O=C(O)Cc1ccccc1Nc1c(Cl)cccc1Cl [diclofenac, 2-(2,6-dichloranilino) phenylacetic acid]
- knee caliper measurements ([1]; diclofenac 1 mg/kg oral with FGF-18 i.a., any other time point): not significantly affected
- knee caliper measurements ([1]; diclofenac 1 mg/kg oral with FGF-18 i.a., day 42): significantly reduced
- swelling scores versus vehicle controls ([1]; diclofenac 1 mg/kg oral with FGF-18 i.a.): significantly reduced
- knee caliper measurements ([1]; diclofenac 3 mg/kg oral with FGF-18 i.a., any other time point): not significantly affected
- knee caliper measurements ([1]; diclofenac 3 mg/kg oral with FGF-18 i.a., day 42): significantly reduced
- swelling scores versus vehicle controls ([1]; diclofenac 3 mg/kg oral with FGF-18 i.a.): significantly reduced
- serum α2MG levels, all groups ([1]; diclofenac 1 and 3 mg/kg with FGF-18, day 63): similar
- time for which effects on knee swelling were evident after the final dose of diclofenac ([1]; diclofenac 1 or 3 mg/kg with FGF-18): approximately one week

Molecule: anakinra: recombinant, nonglycosylated form of human interleukin-1 receptor antagonist (IL-1Ra), SEQ ID NO: 3
- pain versus placebo (OA symptoms; anakinra 150 mg): tendency toward pain reduction
- improvements in OA symptoms compared with placebo (OA symptoms; anakinra therapy): not significantly associated with improvements
- joint damage in RA patients (RA): reduction in frequency and severity of joint damage
- pain in RA patients (RA): pain reduction

B1: trFGF-18: recombinant truncated form of human FGF-18 (170 amino acids, SEQ ID NO: 2), produced in E. coli (protein)
chain: MEENVDFRIHVENQTRARDDVSRKQLRLYQLYSRTSGKHIQVLGRRISARGEDGDKYAQLLVETDTFGSQVRIKGKETEFYLCMNRKGKLVGKPDGTSKECVFIEKVLENNYTALMSAKYSGWYVGFTKKGRPRKGPKTRENQQDVHFMKRYPKGQPELQKPFKYTTVTK
modifications: Recombinant truncated FGF-18(trFGF-18)
- dose at which neo-formation of cartilaginous tissue became significant ([2]; lateral tibia, independently of the injection regime (three i.a. injections weekly or monthly), 17 weeks after surgery): 1 μg/joint
- dose at which neo-formation of cartilaginous tissue became significant ([2]; medial tibia, one-monthly regimen, three i.a. injections): 0.3 μg/joint
- dose at which neo-formation of cartilaginous tissue became significant ([2]; medial tibia, one-weekly regimen, three i.a. injections): 1 μg/joint
- extent of injury over the tibial surface (collagen damage), histopathology ([3]; 10 μg IA, day 105): generally increased
- severity of tibial injury, histopathology ([3]; 10 μg IA, day 105): reducing its severity
- structural benefit (total joint score, substantial tibial cartilage degeneration width) ([3]; monthly injection scheme versus other regimens, 10 μg IA): highest
- overall morphology ([3]; three injections once monthly (Group 5; days 21, 49, 77)): best overall morphology
- animals with intercondylar groove filled with cartilage ([4]; Group 4: no microfracture, monthly x3, nearly normal to slightly roughened or granular cartilage): 6/9
- animals with intercondylar groove filled ([4]; Group 6: microfracture, monthly x3, finely granular to granular cartilage): 3/10
- animals with groove 50% filled to nearly completely filled ([4]; Group 6: microfracture, monthly x3, granular to coarsely granular cartilage): 7/10
- increase in defect fill percentages ([4]; no microfracture, monthly for three months, significant): 48%
- necropsy findings ([4]; rabbit, in vivo): stimulation of osteophytes on the medial and lateral trochlear ridges
- increase in the cell number versus control (medium, no IL1α) ([5]; first experiment (direct treatment, N=4)): 11.25 fold
- increase in the cell number versus control (medium, no IL1α) ([5]; second experiment (6-hour delay, N=6)): 7.75 fold
- stimulation of proliferation versus control (medium, IL1α 10 ng/mL) ([5]; first experiment (direct treatment)): 2.38 fold
- stimulation of proliferation versus control (medium, IL1α 10 ng/mL) ([5]; second experiment (6-hour delay)): 2.44 fold
- cartilage denudation, stereology ([6]; 3 x 1 μg/joint, 18 weeks post-surgery): prevented more or less complete cartilage denudation
- cartilage volume on medial tibia ([6]; One μg/joint once every 3rd week, three injections in total, listed as rhFGF-18): statistically significant difference over saline; also recorded: most beneficial structural outcome
- cartilage volume compared to placebo ([6]; all groups treated (weekly to every 5th week)): higher cartilage volume values
- joint diameters ([6]; between injections every 2nd, 3rd or 4th week): No significant differences
- AUC of joint diameters ([6]; injected every 5th week): the same as with saline injections
- joint diameters (AUC of joint diameter difference) ([6]; injections in week 3, 4 and 5 versus week 3, 8 and 13): significantly higher
- body weight gain ([6]; intra-articular injections, 3 x 1 μg): no influence
